Among the data in the Human Domainome abundance scans (Beltran et al. 2025) are abundance fitness values, retold here.

The chains are these.
B1: Arginine-glutamic acid dipeptide repeats protein, residues 502 to 543; numbered along this chain, Q9P2R6 (parent)
chain: LKGYACRHCFTTTSKDWHHGGRENILLCTDCRIHFKKYGELP
B2: Peroxisome proliferator-activated receptor delta, residues 71 to 145; numbered along this chain, Q03181 (parent)
chain: NMECRVCGDKASGFHYGVHACEGCKGFFRRTIRMKLEYEKCERSCKIQKKNRNKCQYCRFQKCLALGMSHNAIRF

± gives the uncertainty stated by the source.

Variants of B1 are the subject of the first series. As to the kind of experiment: abundance fitness (aPCA) (normalised: wild type 0, dead -1); higher = more abundant; growth selection in yeast, the domain comes from the species named. The conditions noted are these: Homo sapiens.
For the variant Y38V, the abundance fitness is 0.022 ± 0.036.
Take Y38S: the abundance fitness is -0.017 ± 0.047.
For the variant Y38P, the abundance fitness was -0.215 ± 0.056.
On the same count and under the same terms, under Y38A stands -0.077 ± 0.038.
Regarding Y38H, the abundance fitness is -0.111 ± 0.26.
For the variant Y38L, the abundance fitness is -0.123 ± 0.04.
Same read-out and setting: for Y38C the value was 0.059 ± 0.054; for R22P, -0.027 ± 0.053; for R22W, -0.132 ± 0.039.
As to R22Q, the abundance fitness turned out to be 0.029 ± 0.053.
Still for that read-out and setting: under R22S stands -0.055 ± 0.037.
As for R22E, the abundance fitness was -0.02 ± 0.043.
With R22D, the abundance fitness was -0.026 ± 0.041.
Same read-out and setting: under R22C stands -0.067 ± 0.048; under R22A, 0.044 ± 0.035.
Turning to R22G, the abundance fitness is -0.048 ± 0.033.
For the variant R22Y, the abundance fitness turned out to be 0.113 ± 0.095.
Same read-out and setting: for T13M the value was -0.185 ± 0.058; for T13H, -0.045 ± 0.079.
T13N: the abundance fitness was -0.043 ± 0.1.
Same read-out and setting: for T13V the value was -0.125 ± 0.04; for T13K, 0.018 ± 0.052; for T13P, -0.484 ± 0.066.
The same measure, in the same setting: for T13Y the value was -0.223 ± 0.17.
On the same count and under the same terms, for T13Q the value was -0.039 ± 0.058.
In the case of T13A, the abundance fitness was -0.054 ± 0.032.
Same read-out and setting: for C6L the value was -1 ± 0.072.
Take C6G: the abundance fitness is -0.878 ± 0.048.
On to C6H, for which the abundance fitness is -0.601 ± 0.075.
Still for that read-out and setting: under C6T stands -0.902 ± 0.08; under C6R, -0.996 ± 0.052; under C6Y, -1.05 ± 0.13.
In the case of C6W, the abundance fitness was -1.28 ± 0.1.
The same measure, in the same setting: under C6M stands -1.1 ± 0.08.
Same read-out and setting: for C6A the value was -0.969 ± 0.072; for C6F, -1.03 ± 0.12; for H34T, -0.204 ± 0.047.
Consider H34G, for which the abundance fitness was -0.193 ± 0.033.
On the same count and under the same terms, for H34C the value was 0.05 ± 0.069.
For H34A, the abundance fitness is -0.033 ± 0.033.
On to H34I, for which the abundance fitness was -0.472 ± 0.16.
With C9Y, the abundance fitness is -0.426 ± 0.087.
In the case of C9G, the abundance fitness was -0.455 ± 0.038.
Turning to C9E, the abundance fitness is -0.318 ± 0.041.
Still for that read-out and setting: under C9S stands -0.392 ± 0.073; under T11W, -0.589 ± 0.046.
The same measure, in the same setting: under T11A stands -0.136 ± 0.035; under T11L, -0.375 ± 0.043.
For T11N, the abundance fitness is -0.168 ± 0.066.
Consider T11I, for which the abundance fitness was -0.204 ± 0.05.
For T11E, the abundance fitness is -0.4 ± 0.047.
The same measure, in the same setting: for T11P the value was -0.51 ± 0.066.
On the same count and under the same terms, under T11D stands -0.277 ± 0.068; under T11C, -0.219 ± 0.046; under T11K, -0.172 ± 0.052.
On the same count and under the same terms, for T11Y the value was -0.607 ± 0.066; for H8Y, -0.238 ± 0.36.
With H8K, the abundance fitness was -0.368 ± 0.058.
On the same count and under the same terms, under H8M stands -0.347 ± 0.045; under H8T, -0.428 ± 0.053; under H8S, -0.136 ± 0.046.
On the same count and under the same terms, under H8R stands -0.229 ± 0.031.
Turning to H8A, the abundance fitness is -0.189 ± 0.038.
Consider F35H, for which the abundance fitness was -0.015 ± 0.068.
On the same count and under the same terms, under F35Q stands -0.058 ± 0.044; under F35N, -0.245 ± 0.14; under F35D, -0.112 ± 0.098.
Still for that read-out and setting: under F35P stands -0.422 ± 0.064; under F35C, -0.191 ± 0.06; under F35S, -0.187 ± 0.038.
Same read-out and setting: for F35K the value was -0.091 ± 0.089; for C28M, -1.31 ± 0.17; for C28E, -0.685 ± 0.058.
As to C28P, the abundance fitness was -0.853 ± 0.26.
Consider C28R, for which the abundance fitness was -0.921 ± 0.045.
As for C28L, the abundance fitness is -1.13 ± 0.11.
Regarding C28Q, the abundance fitness was -0.746 ± 0.059.
Turning to R32N, the abundance fitness is -0.063 ± 0.071.
Still for that read-out and setting: under R32H stands -0.037 ± 0.12; under R32G, -0.029 ± 0.033; under R32K, -0.137 ± 0.046.
Take R32S: the abundance fitness is -0.013 ± 0.035.
Consider R32D, for which the abundance fitness is -0.001 ± 0.045.
Turning to R32E, the abundance fitness was -0.045 ± 0.042.
Same read-out and setting: for R32T the value was -0.088 ± 0.048; for Y4Q, -0.273 ± 0.044; for Y4C, -0.117 ± 0.053.
Consider Y4S, for which the abundance fitness is -0.075 ± 0.038.
Turning to Y4N, the abundance fitness amounted to 0.165 ± 0.073.
For the variant Y4I, the abundance fitness is -0.089 ± 0.22.
In the case of Y4K, the abundance fitness was -0.178 ± 0.055.
With Y4L, the abundance fitness was -0.109 ± 0.039.
On the same count and under the same terms, for Y4V the value was -0.181 ± 0.039.
The same measure, in the same setting: for Y4A the value was -0.198 ± 0.039; for H18I, -0.07 ± 0.047; for H18C, -0.03 ± 0.055.
Still for that read-out and setting: for H18G the value was 0.057 ± 0.031; for H18D, 0.115 ± 0.13.
As to D30C, the abundance fitness was -0.248 ± 0.12.
Take D30S: the abundance fitness was -0.104 ± 0.046.
Same read-out and setting: for D30M the value was -0.157 ± 0.06; for D30T, 0.068 ± 0.072.
In the case of D30E, the abundance fitness was -0.069 ± 0.042.
For D30G, the abundance fitness is -0.044 ± 0.034.
In the case of R7G, the abundance fitness stood at 0.029 ± 0.031.
Still for that read-out and setting: for R7I the value was -0.188 ± 0.15; for R7F, -0.185 ± 0.1; for R7E, 0.064 ± 0.052.
With R7W, the abundance fitness was -0.195 ± 0.039.
In the case of R7M, the abundance fitness is -0.02 ± 0.042.
As to R7K, the abundance fitness came out at 0.087 ± 0.043.
As to R7H, the abundance fitness was -0.441 ± 0.19.
On the same count and under the same terms, under A5M stands -0.046 ± 0.058.
On to A5K, for which the abundance fitness is -0.104 ± 0.055.
Same read-out and setting: under A5C stands 0.032 ± 0.058.
In the case of A5T, the abundance fitness stood at 0.04 ± 0.043.
Same read-out and setting: for A5G the value was 0.012 ± 0.035; for A5L, -0.018 ± 0.036.
The same measure, in the same setting: under A5V stands -0.039 ± 0.039; under E40C, -0.073 ± 0.072; under E40N, -0.116 ± 0.056.
Regarding E40H, the abundance fitness is -0.11 ± 0.073.
Regarding E40M, the abundance fitness was -0.176 ± 0.045.
The same measure, in the same setting: for E40I the value was -0.095 ± 0.38.
Still for that read-out and setting: for E40K the value was -0.044 ± 0.045; for E40S, -0.077 ± 0.037; for G3R, -0.135 ± 0.034.
Same read-out and setting: under G3W stands -0.391 ± 0.051.
For the variant G3M, the abundance fitness was -0.111 ± 0.14.
Still for that read-out and setting: for G3H the value was -0.058 ± 0.065; for G3V, -0.218 ± 0.034.
On the same count and under the same terms, under G3I stands -0.246 ± 0.053.

Variants of B2 are the subject of the next series. The series is described as above. The conditions noted are these: Homo sapiens.
Consider N51G, for which the abundance fitness is -0.129 ± 0.033.
Still for that read-out and setting: under K46F stands 0.015 ± 0.052; under Y16R, -0.533 ± 0.057; under Y16W, -0.27 ± 0.062.
G26M: the abundance fitness was -0.09 ± 0.061.
As to R33Y, the abundance fitness was -0.019 ± 0.13.
Consider L66S, for which the abundance fitness is 0.03 ± 0.039.
For the variant H15E, the abundance fitness was -0.025 ± 0.045.
Consider I73A, for which the abundance fitness came to 0.202 ± 0.038.
Still for that read-out and setting: for I73Q the value was 0.078 ± 0.053.
Still for that read-out and setting: under I73K stands -0.05 ± 0.062; under G8I, -0.687 ± 0.34; under G8S, -0.362 ± 0.045.
Still for that read-out and setting: for E37P the value was -0.559 ± 0.086; for E37G, -0.319 ± 0.044; for D9K, -0.548 ± 0.12.
With C58V, the abundance fitness is -0.944 ± 0.097.
The same measure, in the same setting: under S69T stands -0.013 ± 0.052; under C21W, -0.881 ± 0.14; under R29L, 0.139 ± 0.035.
Take R5I: the abundance fitness was -0.176 ± 0.067.
In the case of Q61S, the abundance fitness was -0.248 ± 0.056.
Still for that read-out and setting: under K62A stands -0.056 ± 0.046.
Regarding E42N, the abundance fitness was -0.335 ± 0.1.
Still for that read-out and setting: for S44Y the value was 0.061 ± 0.058; for S44E, 0.139 ± 0.04; for F14D, 0.014 ± 0.052.
The same measure, in the same setting: under F28K stands -0.758 ± 0.17; under Q56W, -0.341 ± 0.059; under Q56N, -0.145 ± 0.084.
As for L64D, the abundance fitness was -0.83 ± 0.18.
G17L: the abundance fitness is -0.692 ± 0.074.
The same measure, in the same setting: under G17R stands -0.777 ± 0.076; under E39Q, -0.082 ± 0.052.
Still for that read-out and setting: for H70Y the value was -0.162 ± 0.14.
